# Reference: paper PMC9482650, “Quantitative fragmentomics allow affinity mapping of interactomes” (Nature Communications, 2022)
# T1: DFNB31_3, Q9P202
# T1 sequence (Q9P202 811-907, limits assumed, looked up): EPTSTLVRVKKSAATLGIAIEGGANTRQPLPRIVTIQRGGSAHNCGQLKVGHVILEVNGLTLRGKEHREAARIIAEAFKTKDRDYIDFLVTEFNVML
# T2: GRIP1_5, Q9Y3R0
# T2 sequence (Q9Y3R0 568-668, limits assumed, looked up): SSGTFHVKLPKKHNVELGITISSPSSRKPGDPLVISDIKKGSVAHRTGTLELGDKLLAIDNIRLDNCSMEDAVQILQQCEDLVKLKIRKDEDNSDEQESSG
# T3: LNX2_2, Q8N448
# T3 sequence (Q8N448 334-432, limits assumed, looked up): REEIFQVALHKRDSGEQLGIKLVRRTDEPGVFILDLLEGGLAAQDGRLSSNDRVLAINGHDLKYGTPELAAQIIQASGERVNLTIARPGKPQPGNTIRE
# T4: MPP2, Q14168
# T4 sequence (Q14168 180-250, limits assumed, looked up): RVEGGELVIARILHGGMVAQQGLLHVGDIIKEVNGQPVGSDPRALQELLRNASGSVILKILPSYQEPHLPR
# T5: NHERF3_1, Q5T2W1
# T5 sequence (Q5T2W1 4-100, limits assumed, looked up): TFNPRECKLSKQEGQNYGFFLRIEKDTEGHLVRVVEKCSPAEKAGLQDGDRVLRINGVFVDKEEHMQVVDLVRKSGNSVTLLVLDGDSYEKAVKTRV
# T6: NHERF3_3, Q5T2W1
# T6 sequence (Q5T2W1 238-333, limits assumed, looked up): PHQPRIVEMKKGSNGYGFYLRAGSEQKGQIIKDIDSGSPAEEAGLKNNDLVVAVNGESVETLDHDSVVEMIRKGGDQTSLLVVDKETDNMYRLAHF
# T7: PCLO, Q9Y6V0
# T7 sequence (Q9Y6V0 4491-4600, limits assumed, looked up): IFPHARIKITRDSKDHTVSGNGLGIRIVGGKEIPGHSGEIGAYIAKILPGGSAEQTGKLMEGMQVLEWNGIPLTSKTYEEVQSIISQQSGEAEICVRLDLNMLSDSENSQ
# T8: SHANK1, Q9Y566
# T8 sequence (Q9Y566 658-767, limits assumed, looked up): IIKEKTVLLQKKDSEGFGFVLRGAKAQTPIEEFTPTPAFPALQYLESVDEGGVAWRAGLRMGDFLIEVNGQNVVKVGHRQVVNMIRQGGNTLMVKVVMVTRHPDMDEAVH
# T9: TIAM2, Q8IVF5
# T9 sequence (Q8IVF5 885-986, limits assumed, looked up): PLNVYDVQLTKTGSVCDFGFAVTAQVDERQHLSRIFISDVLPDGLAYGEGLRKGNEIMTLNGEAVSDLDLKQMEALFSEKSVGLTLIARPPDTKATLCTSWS
# T10: TJP3_3, O95049
# T10 sequence (O95049 375-456, limits assumed, looked up): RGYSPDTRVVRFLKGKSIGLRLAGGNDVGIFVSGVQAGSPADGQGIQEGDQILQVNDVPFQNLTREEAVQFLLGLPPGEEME
# How the values were obtained:
# Assay in all cases: holdup assay
# Set-up in all cases: key: below the threshold = too weak to quantify, mostly under pKd 3.1 to 4
# Details in all cases: plain residues with an end cap or a label only (N-terminal biotin on a linker: ado-ado)
# DFNB31_3, Q9P202 = target: T1, DFNB31_3, Q9P202
# DLG2_2, Q15700 = target: DLG2_2, Q15700
# DLG2_2, Q15700, sequence (Q15700 189-283): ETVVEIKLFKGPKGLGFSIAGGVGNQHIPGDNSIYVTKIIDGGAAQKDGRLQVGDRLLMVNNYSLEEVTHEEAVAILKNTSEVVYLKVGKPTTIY
# DLG4_1, P78352 = target: DLG4_1, P78352
# DLG4_1, P78352, sequence (P78352 62-152): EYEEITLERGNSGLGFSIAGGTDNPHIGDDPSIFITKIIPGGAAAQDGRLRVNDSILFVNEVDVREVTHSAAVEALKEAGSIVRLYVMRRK
# DLG4_2, P78352 = target: DLG4_2, P78352
# DLG4_2, P78352, sequence (P78352 155-259): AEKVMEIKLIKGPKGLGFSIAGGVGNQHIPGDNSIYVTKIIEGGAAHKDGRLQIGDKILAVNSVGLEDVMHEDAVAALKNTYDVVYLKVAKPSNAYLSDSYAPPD
# DLG5_1, Q8TDM6 = target: DLG5_1, Q8TDM6
# DLG5_1, Q8TDM6, sequence (Q8TDM6 617-713): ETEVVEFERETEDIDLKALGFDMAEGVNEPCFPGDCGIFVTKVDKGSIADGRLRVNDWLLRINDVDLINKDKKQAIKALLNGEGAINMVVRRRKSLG
# FRMPD2_3, Q68DX3 = target: FRMPD2_3, Q68DX3
# FRMPD2_3, Q68DX3, sequence (Q68DX3 1073-1166): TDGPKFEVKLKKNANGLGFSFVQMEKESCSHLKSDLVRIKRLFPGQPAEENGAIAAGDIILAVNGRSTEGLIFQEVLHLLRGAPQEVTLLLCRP
# GORASP1, Q9BQQ3 = target: GORASP1, Q9BQQ3
# GORASP1, Q9BQQ3, sequence (Q9BQQ3 1-208): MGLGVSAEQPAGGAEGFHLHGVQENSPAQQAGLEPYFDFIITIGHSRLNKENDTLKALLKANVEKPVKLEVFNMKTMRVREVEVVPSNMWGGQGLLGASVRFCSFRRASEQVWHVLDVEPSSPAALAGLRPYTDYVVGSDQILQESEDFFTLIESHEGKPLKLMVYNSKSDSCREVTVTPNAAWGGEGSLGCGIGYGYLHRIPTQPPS
# GRID2IP_1, A4D2P6 = target: GRID2IP_1, A4D2P6
# GRID2IP_1, A4D2P6, sequence (A4D2P6 1-87): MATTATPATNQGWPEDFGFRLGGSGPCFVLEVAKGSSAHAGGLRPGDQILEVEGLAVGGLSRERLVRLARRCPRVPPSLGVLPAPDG
# GRIP1_5, Q9Y3R0 = target: T2, GRIP1_5, Q9Y3R0
# IL16_1, Q14005 = target: IL16_1, Q14005
# IL16_1, Q14005, sequence (Q14005 210-306): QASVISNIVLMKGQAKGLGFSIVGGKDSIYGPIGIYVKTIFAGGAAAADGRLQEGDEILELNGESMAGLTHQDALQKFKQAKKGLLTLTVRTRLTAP
# Inadl_6, Q8NI35 = target: Inadl_6, Q8NI35
# Inadl_6, Q8NI35, sequence (Q8NI35 1058-1167): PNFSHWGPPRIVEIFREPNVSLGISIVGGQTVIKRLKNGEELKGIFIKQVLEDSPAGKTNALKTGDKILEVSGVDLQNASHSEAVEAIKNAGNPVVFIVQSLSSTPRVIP
# Inadl_8, Q8NI35 = target: Inadl_8, Q8NI35
# Inadl_8, Q8NI35, sequence (Q8NI35 1425-1530): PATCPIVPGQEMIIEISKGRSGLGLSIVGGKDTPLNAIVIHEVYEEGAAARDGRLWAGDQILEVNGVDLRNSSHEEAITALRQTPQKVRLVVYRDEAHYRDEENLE
# LNX2_2, Q8N448 = target: T3, LNX2_2, Q8N448
# MAGI2_2, Q86UL8 = target: MAGI2_2, Q86UL8
# MAGI2_2, Q86UL8, sequence (Q86UL8 410-522): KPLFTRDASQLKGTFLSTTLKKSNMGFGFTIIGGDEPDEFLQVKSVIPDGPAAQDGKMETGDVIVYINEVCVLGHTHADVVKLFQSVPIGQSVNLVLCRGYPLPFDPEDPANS
# MAGI2_6, Q86UL8 = target: MAGI2_6, Q86UL8
# MAGI2_6, Q86UL8, sequence (Q86UL8 1141-1229): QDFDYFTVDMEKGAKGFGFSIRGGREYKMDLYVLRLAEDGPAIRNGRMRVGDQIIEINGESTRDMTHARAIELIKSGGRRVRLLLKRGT
# MPP2, Q14168 = target: T4, MPP2, Q14168
# NHERF3_1, Q5T2W1 = target: T5, NHERF3_1, Q5T2W1
# NHERF3_3, Q5T2W1 = target: T6, NHERF3_3, Q5T2W1
# NHERF4_1, Q86UT5-2 = target: NHERF4_1, Q86UT5-2
# NHERF4_1, Q86UT5-2, sequence (Q86UT5 other isoform, or with tags, fused parts or gaps): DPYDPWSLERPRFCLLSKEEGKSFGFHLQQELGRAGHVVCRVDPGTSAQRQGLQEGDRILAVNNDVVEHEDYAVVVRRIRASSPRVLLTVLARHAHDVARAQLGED
# NOS1, P29475 = target: NOS1, P29475
# NOS1, P29475, sequence (P29475 9-101): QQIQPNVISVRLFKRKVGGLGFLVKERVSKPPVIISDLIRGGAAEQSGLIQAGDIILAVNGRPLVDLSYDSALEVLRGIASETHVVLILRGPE
# PCLO, Q9Y6V0 = target: T7, PCLO, Q9Y6V0
# PICK1, Q9NRD5 = target: PICK1, Q9NRD5
# PICK1, Q9NRD5, sequence (Q9NRD5 17-115): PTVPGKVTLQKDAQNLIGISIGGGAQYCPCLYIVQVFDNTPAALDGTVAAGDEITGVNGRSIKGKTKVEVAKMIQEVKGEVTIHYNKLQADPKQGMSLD
# PTPN3, P26045 = target: PTPN3, P26045
# PTPN3, P26045, sequence (P26045 505-587): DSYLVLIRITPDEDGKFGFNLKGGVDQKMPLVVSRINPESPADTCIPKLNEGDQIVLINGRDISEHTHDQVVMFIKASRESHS
# SHANK1, Q9Y566 = target: T8, SHANK1, Q9Y566
# TIAM2, Q8IVF5 = target: T9, TIAM2, Q8IVF5
# TJP1_3, Q07157 = target: TJP1_3, Q07157
# TJP1_3, Q07157, sequence (Q07157 416-512): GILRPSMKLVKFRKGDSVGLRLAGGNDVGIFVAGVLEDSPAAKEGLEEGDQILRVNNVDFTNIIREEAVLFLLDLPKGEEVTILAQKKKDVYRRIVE
# TJP3_3, O95049 = target: T10, TJP3_3, O95049
"pKd (DFNB31_3, Q9P202)","pKd (DLG2_2, Q15700)","pKd (DLG4_1, P78352)","pKd (DLG4_2, P78352)","pKd (DLG5_1, Q8TDM6)","pKd (FRMPD2_3, Q68DX3)","pKd (GORASP1, Q9BQQ3)","pKd (GRID2IP_1, A4D2P6)","pKd (GRIP1_5, Q9Y3R0)","pKd (IL16_1, Q14005)","pKd (Inadl_6, Q8NI35)","pKd (Inadl_8, Q8NI35)","pKd (LNX2_2, Q8N448)","pKd (MAGI2_2, Q86UL8)","pKd (MAGI2_6, Q86UL8)","pKd (MPP2, Q14168)","pKd (NHERF3_1, Q5T2W1)","pKd (NHERF3_3, Q5T2W1)","pKd (NHERF4_1, Q86UT5-2)","pKd (NOS1, P29475)",Binder,other results
3.99,below the threshold,below the threshold,below the threshold,below the threshold,below the threshold,below the threshold,below the threshold,below the threshold,below the threshold,below the threshold,below the threshold,4.32,below the threshold,below the threshold,below the threshold,3.62,below the threshold,below the threshold,3.47,"KSRPENGTVC [TMEM178B, H3BS89]","pKd (PCLO, Q9Y6V0): below the threshold; pKd (PICK1, Q9NRD5): below the threshold; pKd (PTPN3, P26045): 3.77; pKd (SHANK1, Q9Y566): below the threshold; pKd (TIAM2, Q8IVF5): below the threshold; pKd (TJP1_3, Q07157): below the threshold; pKd (TJP3_3, O95049): below the threshold"
below the threshold,4.56,4.44,4.67,below the threshold,below the threshold,below the threshold,below the threshold,below the threshold,4.05,4.04,below the threshold,4.02,below the threshold,4.31,below the threshold,3.82,below the threshold,below the threshold,below the threshold,"IQISELETNV [SLC1A7, O00341]","pKd (PCLO, Q9Y6V0): below the threshold; pKd (PICK1, Q9NRD5): 4.18; pKd (PTPN3, P26045): 4.84; pKd (SHANK1, Q9Y566): 3.94; pKd (TIAM2, Q8IVF5): below the threshold; pKd (TJP1_3, Q07157): below the threshold; pKd (TJP3_3, O95049): below the threshold"
4.21,below the threshold,below the threshold,below the threshold,below the threshold,below the threshold,below the threshold,below the threshold,below the threshold,below the threshold,below the threshold,4.08,below the threshold,below the threshold,below the threshold,below the threshold,below the threshold,below the threshold,3.66,below the threshold,"QQGLLPHSSC [TYRO3, Q06418]","pKd (PCLO, Q9Y6V0): below the threshold; pKd (PICK1, Q9NRD5): below the threshold; pKd (PTPN3, P26045): below the threshold; pKd (SHANK1, Q9Y566): below the threshold; pKd (TIAM2, Q8IVF5): below the threshold; pKd (TJP1_3, Q07157): below the threshold; pKd (TJP3_3, O95049): below the threshold"
below the threshold,below the threshold,3.65,3.58,below the threshold,below the threshold,below the threshold,below the threshold,below the threshold,below the threshold,3.94,below the threshold,3.67,below the threshold,4.2,below the threshold,6.1,below the threshold,4.55,3.5,"EAVTVESTSL [SLC22A11, Q9NSA0]","pKd (PCLO, Q9Y6V0): below the threshold; pKd (PICK1, Q9NRD5): below the threshold; pKd (PTPN3, P26045): 4.62; pKd (SHANK1, Q9Y566): 5.68; pKd (TIAM2, Q8IVF5): below the threshold; pKd (TJP1_3, Q07157): below the threshold; pKd (TJP3_3, O95049): below the threshold"
3.83,4.44,4.15,4.49,below the threshold,below the threshold,4.13,below the threshold,below the threshold,below the threshold,below the threshold,below the threshold,5.14,4.13,below the threshold,below the threshold,below the threshold,below the threshold,below the threshold,3.64,"PEKVSNTTVV [IGSF5, Q9NSI5]","pKd (PCLO, Q9Y6V0): below the threshold; pKd (PICK1, Q9NRD5): 4.15; pKd (PTPN3, P26045): below the threshold; pKd (SHANK1, Q9Y566): below the threshold; pKd (TIAM2, Q8IVF5): 4.04; pKd (TJP1_3, Q07157): below the threshold; pKd (TJP3_3, O95049): below the threshold"
